According to paper PMC3358304:

Test: immunoblot of total Akt, MCF-7
Conditions: glycan lost; control: wild type

**Q.** For Akt (AKT1): T305Y, which expression_or_secretion is on record?
**A.** no change

**Q.** With Akt (AKT1): T312Y as the substance, how does the expression_or_secretion read?
**A.** no change
